These results are taken from paper doi:10.1101/2025.07.15.665002 (bioRxiv, 2025).

The series deals with the molecule itself. Kind of series: SAXS.

B1: human cytosolic malate dehydrogenase, splice variant 3 (hMDH1V3) (enzyme, UniProt P40925-3 1-352, looked up)
chain: MGRRCSYFPKDVTVFDKDDKSEPIRVLVTGAAGQIAYSLLYSIGNGSVFGKDQPIILVLLDITPMMGVLDGVLMELQDCALPLLKDVIATDKEDVAFKDLDVAILVGSMPRREGMERKDLLKANVKIFKSQGAALDKYAKKSVKVIVVGNPANTNCLTASKSAPSIPKENFSCLTRLDHNRAKAQIALKLGVTANDVKNVIIWGNHSSTQYPDVNHAKVKLQGKEVGVYEALKDDSWLKGEFVTTVQQRGAAVIKARKLSSAMSAAKAICDHVRDIWFGTPEGEFVSMGVISDGNSYGVPDDLLYSFPVVIKNKTWKFVEGLPINDFSREKMDLTAKELTEEKESAFEFLSSA
Usually stoichiometry N stands for the number of molecules, sites or subunits per partner or assembly. For B1, the “stoichiometry N” value was determined as 2.

B2: human mitochondrial malate dehydrogenase (hMDH2), wild type (enzyme, UniProt P40926-1 25-338, looked up)
chain: AKVAVLGASGGIGQPLSLLLKNSPLVSRLTLYDIAHTPGVAADLSHIETKAAVKGYLGPEQLPDCLKGCDVVVIPAGVPRKPGMTRDDLFNTNATIVATLTAACAQHCPEAMICVIANPVNSTIPITAEVFKKHGVYNPNKIFGVTTLDIVRANTFVAELKGLDPARVNVPVIGGHAGKTIIPLISQCTPKVDFPQDQLTALTGRIQEAGTEVVKAKAGAGSATLSMAYAGARFVFSLVDAMNGKEGVVECSFVKSQETECTYFSTPLLLGKKGIEKNLGIGKVSSFEEKMISDAIPELKASIKKGEDFVKTLK
On to B2, for which the “stoichiometry N” value came out at 2.
